Measured values as given in article PMC6042069.
Positions count from the first letter of the chain named. Like-named read-outs stand apart in the source and are kept apart here.

Tests used:
Assay in all cases: EMSA
PPARγ2;RXRα [1] = molecular target: T1, PPARγ2;RXRα (mouse;human, UniProt P37238;P19793 1-505;1-462, |)
PPARγ2;RXRα [2] = molecular target: T1, PPARγ2;RXRα; remark: listed apart in the source
PPARγ2;RXRα [3] = molecular target: T1, PPARγ2;RXRα; remark: listed apart in the source

B1: LepRE1 DR1 (GOF) (dsDNA)
DNA 1: AAGATTTGAACTTTGAACTGAATTGGCTGCAGC
DNA 2: GCTGCAGCCAATTCAGTTCAAAGTTCAAATCTT
- binding result (PPARγ2;RXRα [1]): binds

B2: LepRE1 LOF (dsDNA)
DNA 1: AAGATTTGAAATTTCCGCAGAATTGGCTGCAGC
DNA 2: GCTGCAGCCAATTCTGCGGAAATTTCAAATCTT
- binding result (PPARγ2;RXRα [2]): no binding

B3: LepRE1 EXT (dsDNA)
DNA 1: B2 DNA 1 with A11C, A21G
DNA 2: B2 DNA 2 with T13C, T23G
- binding result (PPARγ2;RXRα [3]): binds
